Data from patent US20100330076A1.

Legend:
[1] = target: FcγRI (human) (UniProt P12314); test: BIACore SPR
[2] = target: FcγRIa (human) (UniProt P12314); test: BIACore SPR
FcγRIa (human), sequence (P12314 16-292): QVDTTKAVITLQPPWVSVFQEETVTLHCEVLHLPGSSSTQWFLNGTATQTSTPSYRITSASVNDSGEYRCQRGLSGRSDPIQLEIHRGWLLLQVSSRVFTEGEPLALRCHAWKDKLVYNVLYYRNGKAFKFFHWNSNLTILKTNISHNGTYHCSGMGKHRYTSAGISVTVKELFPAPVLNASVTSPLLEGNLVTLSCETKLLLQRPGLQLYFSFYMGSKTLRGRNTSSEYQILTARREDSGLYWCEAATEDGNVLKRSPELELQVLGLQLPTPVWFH

FcγRI (human), sequence (P12314 16-292): as above

Substance | Kd [1] | Kd [2]
Aglycosylated wild type Trastuzumab | 382 nM | 
Aglycosylated wild type trastuzumab |  | 382 nM
